From publication PMC5063997, “Engineered Tissue Inhibitor of Metalloproteinases-3 Variants Resistant to Endocytosis Have Prolonged Chondroprotective Activity*” (The Journal of Biological Chemistry, 2016)
Substitutions are numbered along the chain they refer to. Numbers in names are those of the source.

Assays:
[1] = target: low density lipoprotein receptor-related protein 1 (LRP1), full-length (UniProt Q07954)
[2] = target: low density lipoprotein receptor-related protein 1 (LRP1), full-length (UniProt Q07954); remark: listed apart in the source
[3] = target: T1, ADAMTS-5 lacking the C-terminal thrombospondin domain (UniProt Q9UNA0 262-874); assay: enzyme inhibition under equilibrium conditions (Ki(app), tight binding equation); apparent; metalloproteinase (0.5-1 nM) preincubated with wild-type or mutant TIMP-3 (0.25-25 nM) 1 h at 37 °C, residual activity on fluorescence-quenched substrates; 50 mM Tris-HCl pH 7.5, 150 mM NaCl, 10 mM CaCl2, 0.05% Brij 35, 0.02% NaN3; settings: both partners purified
T1 construct: ADAMTS-5 without its C-terminal thrombospondin domain
T1 sequence (looked up): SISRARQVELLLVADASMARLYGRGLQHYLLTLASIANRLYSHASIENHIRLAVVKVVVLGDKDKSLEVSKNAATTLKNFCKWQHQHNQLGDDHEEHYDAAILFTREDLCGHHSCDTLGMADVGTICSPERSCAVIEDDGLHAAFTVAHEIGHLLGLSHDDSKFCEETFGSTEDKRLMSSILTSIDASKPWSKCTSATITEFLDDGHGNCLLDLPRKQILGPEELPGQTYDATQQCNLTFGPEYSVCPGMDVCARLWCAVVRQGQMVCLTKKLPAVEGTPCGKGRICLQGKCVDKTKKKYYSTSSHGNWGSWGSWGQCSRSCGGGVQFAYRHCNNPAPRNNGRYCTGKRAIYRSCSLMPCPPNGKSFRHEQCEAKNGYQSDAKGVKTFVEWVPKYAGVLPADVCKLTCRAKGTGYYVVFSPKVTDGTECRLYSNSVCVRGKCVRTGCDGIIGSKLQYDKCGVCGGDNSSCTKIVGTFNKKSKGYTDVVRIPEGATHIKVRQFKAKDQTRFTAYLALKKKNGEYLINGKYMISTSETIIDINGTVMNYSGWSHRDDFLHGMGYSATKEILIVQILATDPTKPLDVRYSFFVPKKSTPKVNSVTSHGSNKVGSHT

[4] = target: T2, catalytic domain of MMP-3 (MMP-3ΔC) (UniProt P08254 100-272); assay: as above; settings: both partners purified
T2 construct: MMP-3, catalytic domain
T2 sequence (P08254 100-272, stated change not applied): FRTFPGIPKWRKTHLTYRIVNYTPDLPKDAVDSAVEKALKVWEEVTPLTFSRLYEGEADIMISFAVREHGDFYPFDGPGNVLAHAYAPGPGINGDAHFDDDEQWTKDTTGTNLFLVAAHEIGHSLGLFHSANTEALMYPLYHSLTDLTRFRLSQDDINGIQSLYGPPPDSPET

[5] = target: T3, catalytic domain of MMP-2 (MMP-2ΔC) (UniProt P08253 110-444); assay: as above; settings: both partners purified
T3 construct: MMP-2, catalytic domain

[6] = target: T4, catalytic domain of MMP-1 (MMP-1ΔC) (UniProt P03956 100-269); assay: as above; settings: both partners purified
T4 construct: MMP-1, catalytic domain
T4 sequence (looked up): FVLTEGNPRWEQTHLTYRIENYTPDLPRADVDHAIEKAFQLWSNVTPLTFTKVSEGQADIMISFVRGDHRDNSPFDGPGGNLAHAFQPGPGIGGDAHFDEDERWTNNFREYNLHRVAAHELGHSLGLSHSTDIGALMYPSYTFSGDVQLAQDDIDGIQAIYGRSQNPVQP

[7] = target: T5, ADAMTS-4 lacking the C-terminal spacer domain (UniProt O75173 213-685); assay: as above; settings: both partners purified
T5 construct: ADAMTS-4 without its C-terminal spacer domain
T5 sequence (looked up): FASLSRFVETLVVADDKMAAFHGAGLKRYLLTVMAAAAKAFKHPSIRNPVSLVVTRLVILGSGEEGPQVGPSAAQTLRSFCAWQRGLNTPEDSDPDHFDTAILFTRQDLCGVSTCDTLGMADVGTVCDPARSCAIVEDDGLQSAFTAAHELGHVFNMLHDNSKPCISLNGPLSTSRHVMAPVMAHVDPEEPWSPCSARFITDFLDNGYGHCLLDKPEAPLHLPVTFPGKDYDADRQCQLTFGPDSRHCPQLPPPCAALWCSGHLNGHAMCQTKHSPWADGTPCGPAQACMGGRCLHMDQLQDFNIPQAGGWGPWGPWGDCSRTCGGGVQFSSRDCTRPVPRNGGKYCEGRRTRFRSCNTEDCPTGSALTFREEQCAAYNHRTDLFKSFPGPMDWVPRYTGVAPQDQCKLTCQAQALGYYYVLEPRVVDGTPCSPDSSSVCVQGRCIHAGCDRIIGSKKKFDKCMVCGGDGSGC

[8] = target: low density lipoprotein receptor-related protein 1 (LRP1), full-length (UniProt Q07954 20-4544); assay: cell-based or functional assay
ADAM17 ectodomain = target: T6, ADAM17 ectodomain (UniProt P78536 215-671); assay: enzyme inhibition under equilibrium conditions (Ki(app), tight binding equation); apparent; ADAM17 preincubated with wild-type or mutant TIMP-3 (0.25-25 nM) 1 h at 37 °C, residual activity on a fluorescence-quenched substrate; 50 mM Tris-HCl pH 7.5, 25 mM NaCl, 10 mM CaCl2, 0.05% Brij 35, 0.02% NaN3; settings: both partners purified
T6 construct: ADAM17, ectodomain; source: gift from Professor Gillian Murphy (University of Cambridge)
T6 sequence (P78536 215-671): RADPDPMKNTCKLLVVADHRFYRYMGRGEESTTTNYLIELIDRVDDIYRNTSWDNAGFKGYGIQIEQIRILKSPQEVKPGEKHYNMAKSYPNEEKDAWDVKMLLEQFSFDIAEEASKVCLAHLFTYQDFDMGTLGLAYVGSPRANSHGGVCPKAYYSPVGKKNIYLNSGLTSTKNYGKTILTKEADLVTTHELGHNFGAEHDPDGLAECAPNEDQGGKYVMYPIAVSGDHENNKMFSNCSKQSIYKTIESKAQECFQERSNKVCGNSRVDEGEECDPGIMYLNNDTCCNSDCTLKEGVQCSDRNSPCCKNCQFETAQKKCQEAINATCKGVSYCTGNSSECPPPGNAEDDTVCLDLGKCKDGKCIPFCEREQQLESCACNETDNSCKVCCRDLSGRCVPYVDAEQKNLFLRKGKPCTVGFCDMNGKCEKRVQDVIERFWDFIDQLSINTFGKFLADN

[9] = target: T1, ADAMTS-5 lacking the C-terminal …; assay: enzyme inhibition under equilibrium conditions (Ki(app), tight binding equation); apparent; ADAMTS-5 (0.5 nM) preincubated with TIMP-3 (0.5-10 nM) with heparin (100 nM) 1 h at 37 °C, residual activity 18 h at 37 °C; 50 mM Tris-HCl pH 7.5, 150 mM NaCl, 10 mM CaCl2, 0.05% Brij 35, 0.02% NaN3; settings: both partners purified

low density lipoprotein receptor-related protein 1 (LRP1), full-length (UniProt Q07954), sequence (Q07954 20-4544): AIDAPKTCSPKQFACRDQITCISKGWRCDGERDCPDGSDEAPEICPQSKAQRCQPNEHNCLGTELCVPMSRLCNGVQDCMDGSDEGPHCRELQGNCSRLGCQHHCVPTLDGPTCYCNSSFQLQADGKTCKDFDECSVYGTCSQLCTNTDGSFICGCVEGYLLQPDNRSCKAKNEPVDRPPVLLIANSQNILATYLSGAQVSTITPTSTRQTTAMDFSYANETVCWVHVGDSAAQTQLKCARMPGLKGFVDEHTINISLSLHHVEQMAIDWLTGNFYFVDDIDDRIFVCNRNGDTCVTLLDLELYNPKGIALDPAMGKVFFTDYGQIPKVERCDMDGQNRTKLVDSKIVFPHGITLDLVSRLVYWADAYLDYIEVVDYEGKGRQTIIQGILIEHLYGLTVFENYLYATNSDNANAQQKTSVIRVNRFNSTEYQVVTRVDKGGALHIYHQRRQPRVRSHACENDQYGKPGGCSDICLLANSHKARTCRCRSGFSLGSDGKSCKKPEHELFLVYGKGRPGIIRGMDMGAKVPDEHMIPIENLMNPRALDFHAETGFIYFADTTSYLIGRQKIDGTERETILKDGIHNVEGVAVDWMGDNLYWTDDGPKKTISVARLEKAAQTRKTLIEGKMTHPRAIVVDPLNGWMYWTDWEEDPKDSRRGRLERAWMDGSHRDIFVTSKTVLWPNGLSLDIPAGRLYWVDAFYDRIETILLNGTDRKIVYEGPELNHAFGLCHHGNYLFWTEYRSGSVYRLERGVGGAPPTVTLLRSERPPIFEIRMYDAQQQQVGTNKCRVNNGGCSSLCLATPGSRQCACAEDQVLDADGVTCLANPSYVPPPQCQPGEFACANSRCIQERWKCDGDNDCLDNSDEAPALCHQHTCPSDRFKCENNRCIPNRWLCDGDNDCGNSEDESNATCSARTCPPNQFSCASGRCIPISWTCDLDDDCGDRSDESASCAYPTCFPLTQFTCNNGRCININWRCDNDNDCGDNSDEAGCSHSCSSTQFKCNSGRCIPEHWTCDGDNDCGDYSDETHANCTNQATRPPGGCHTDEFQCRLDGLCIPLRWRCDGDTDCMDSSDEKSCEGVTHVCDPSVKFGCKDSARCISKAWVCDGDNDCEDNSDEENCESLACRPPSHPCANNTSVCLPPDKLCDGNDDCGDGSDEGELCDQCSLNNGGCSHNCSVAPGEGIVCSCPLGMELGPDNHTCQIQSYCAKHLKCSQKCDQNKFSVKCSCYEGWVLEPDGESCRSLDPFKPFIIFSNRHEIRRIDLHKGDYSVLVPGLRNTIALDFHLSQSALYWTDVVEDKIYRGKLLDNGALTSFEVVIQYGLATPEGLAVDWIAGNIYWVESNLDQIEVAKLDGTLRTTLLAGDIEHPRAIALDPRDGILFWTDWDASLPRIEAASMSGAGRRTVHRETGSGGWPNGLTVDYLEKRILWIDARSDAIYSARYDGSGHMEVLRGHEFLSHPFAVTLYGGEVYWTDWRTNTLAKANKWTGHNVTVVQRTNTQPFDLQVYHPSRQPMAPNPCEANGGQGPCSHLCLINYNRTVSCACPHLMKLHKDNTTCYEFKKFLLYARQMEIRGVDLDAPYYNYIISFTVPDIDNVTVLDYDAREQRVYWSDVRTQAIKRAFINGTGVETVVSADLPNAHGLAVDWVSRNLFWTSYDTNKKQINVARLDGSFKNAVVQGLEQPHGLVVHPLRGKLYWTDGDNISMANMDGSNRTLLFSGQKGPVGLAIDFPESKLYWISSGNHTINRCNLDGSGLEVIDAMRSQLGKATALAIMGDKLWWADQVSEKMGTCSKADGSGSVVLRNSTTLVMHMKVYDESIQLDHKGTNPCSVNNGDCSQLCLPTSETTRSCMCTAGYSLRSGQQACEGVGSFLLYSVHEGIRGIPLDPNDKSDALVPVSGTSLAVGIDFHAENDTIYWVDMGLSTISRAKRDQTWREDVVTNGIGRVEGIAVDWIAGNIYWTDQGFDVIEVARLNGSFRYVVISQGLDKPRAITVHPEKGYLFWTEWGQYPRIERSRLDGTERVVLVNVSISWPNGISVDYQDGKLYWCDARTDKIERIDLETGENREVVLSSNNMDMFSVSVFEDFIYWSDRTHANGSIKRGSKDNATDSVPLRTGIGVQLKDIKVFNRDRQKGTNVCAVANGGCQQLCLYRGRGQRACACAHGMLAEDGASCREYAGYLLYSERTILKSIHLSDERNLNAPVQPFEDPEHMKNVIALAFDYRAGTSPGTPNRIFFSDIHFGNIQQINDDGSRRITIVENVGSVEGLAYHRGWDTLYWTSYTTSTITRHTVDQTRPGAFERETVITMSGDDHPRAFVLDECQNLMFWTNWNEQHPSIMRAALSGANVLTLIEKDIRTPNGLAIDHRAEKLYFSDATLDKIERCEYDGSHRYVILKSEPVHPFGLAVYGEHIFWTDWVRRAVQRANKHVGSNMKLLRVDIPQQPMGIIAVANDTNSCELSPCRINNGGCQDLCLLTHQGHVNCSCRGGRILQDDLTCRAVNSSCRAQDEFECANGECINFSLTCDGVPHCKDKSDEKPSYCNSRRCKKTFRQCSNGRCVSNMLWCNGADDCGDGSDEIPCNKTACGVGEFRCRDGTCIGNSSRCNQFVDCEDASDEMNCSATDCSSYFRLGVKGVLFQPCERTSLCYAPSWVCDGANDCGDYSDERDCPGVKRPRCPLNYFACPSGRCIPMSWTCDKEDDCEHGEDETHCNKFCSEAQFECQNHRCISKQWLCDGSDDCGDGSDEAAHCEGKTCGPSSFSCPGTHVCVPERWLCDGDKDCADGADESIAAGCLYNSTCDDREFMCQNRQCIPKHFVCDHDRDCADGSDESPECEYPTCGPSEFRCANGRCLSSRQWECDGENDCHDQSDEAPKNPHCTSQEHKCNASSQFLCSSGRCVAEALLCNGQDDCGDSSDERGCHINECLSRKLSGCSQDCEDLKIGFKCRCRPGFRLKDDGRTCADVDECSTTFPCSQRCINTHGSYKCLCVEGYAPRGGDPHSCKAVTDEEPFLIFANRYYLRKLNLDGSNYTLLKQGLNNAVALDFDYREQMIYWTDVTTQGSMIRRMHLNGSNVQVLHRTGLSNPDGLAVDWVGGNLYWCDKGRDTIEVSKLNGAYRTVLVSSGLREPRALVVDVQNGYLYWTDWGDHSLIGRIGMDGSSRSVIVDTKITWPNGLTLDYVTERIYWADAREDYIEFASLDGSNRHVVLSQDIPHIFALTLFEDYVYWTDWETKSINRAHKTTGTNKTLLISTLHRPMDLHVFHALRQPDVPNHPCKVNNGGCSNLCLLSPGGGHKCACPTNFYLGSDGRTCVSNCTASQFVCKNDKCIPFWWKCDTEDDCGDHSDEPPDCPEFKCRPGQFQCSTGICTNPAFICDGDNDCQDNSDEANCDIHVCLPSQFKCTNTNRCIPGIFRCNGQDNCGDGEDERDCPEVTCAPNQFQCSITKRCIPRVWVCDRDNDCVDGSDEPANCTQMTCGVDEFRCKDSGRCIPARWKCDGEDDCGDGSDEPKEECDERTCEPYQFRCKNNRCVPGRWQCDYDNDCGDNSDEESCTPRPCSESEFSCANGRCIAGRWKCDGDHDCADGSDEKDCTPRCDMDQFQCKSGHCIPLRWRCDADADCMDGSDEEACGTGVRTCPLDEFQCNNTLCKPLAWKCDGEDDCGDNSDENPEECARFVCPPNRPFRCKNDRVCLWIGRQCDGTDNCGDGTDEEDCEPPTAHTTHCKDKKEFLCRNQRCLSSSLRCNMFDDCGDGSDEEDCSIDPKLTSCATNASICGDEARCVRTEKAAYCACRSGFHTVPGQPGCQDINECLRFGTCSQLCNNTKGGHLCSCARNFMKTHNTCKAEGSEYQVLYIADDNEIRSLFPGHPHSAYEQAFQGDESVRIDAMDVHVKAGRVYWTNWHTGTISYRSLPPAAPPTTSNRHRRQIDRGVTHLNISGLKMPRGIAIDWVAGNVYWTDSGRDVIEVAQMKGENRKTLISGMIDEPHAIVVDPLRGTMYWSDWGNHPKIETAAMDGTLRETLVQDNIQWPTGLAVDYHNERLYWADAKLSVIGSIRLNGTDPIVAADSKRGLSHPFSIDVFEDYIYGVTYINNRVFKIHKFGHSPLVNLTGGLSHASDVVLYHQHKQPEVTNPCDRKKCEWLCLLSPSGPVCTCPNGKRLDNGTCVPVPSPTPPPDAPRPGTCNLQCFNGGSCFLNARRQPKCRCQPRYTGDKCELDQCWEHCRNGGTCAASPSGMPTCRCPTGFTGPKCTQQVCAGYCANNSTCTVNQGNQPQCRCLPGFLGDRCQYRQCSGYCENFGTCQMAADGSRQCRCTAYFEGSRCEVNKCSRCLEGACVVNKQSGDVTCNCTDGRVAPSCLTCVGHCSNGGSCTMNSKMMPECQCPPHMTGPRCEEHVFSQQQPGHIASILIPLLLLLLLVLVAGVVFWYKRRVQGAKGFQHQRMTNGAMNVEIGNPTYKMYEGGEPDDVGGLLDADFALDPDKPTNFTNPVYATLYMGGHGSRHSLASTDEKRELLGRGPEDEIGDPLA

B1: TIMP-3 K22A/K110A, C-terminally FLAG-tagged (natural protein)
chain: CTCSPSHPQDAFCNSDIVIRAAVVGKKLVKEGPFGTLVYTIKQMKMYRGFTKMPHVQYIHTEASESLCGLKLEVNKYQYLLTGRVYDGKMYTGLCNFVERWDQLTLSQRAGLNYRYHLGCNCKIKSCYYLPCFVTSKNECLWTDMLSNFGYPGYQSKHYACIRQKGGYCSWYRGWAPPDKSIINATDP
- percentage remaining in the medium of HTB94 chondrosarcoma cells after 24 h (1 nM, anti-FLAG immunoblot and densitometry) [1]: > 50%

B2: TIMP-3 K22A/K157A, C-terminally FLAG-tagged (natural protein)
chain: B1 chain with A110K, K157A
- percentage remaining in the medium of HTB94 chondrosarcoma cells after 24 h (1 nM, anti-FLAG immunoblot and densitometry) [1]: > 50%

B3: TIMP-3 K27A/K45A, C-terminally FLAG-tagged (natural protein)
chain: B1 chain with A22K, K27A, K45A, A110K
- percentage remaining in the medium of HTB94 chondrosarcoma cells after 24 h (1 nM, anti-FLAG immunoblot and densitometry) [1]: > 50%

B4: TIMP-3 K30A/K52A, C-terminally FLAG-tagged (natural protein)
chain: B1 chain with A22K, K30A, K52A, A110K
- percentage remaining in the medium of HTB94 chondrosarcoma cells after 24 h (1 nM, anti-FLAG immunoblot and densitometry) [1]: > 50%

B5: TIMP-3 K30A/K76A, C-terminally FLAG-tagged (natural protein)
chain: B1 chain with A22K, K30A, K76A, A110K
- percentage remaining in the medium of HTB94 chondrosarcoma cells after 24 h (1 nM, anti-FLAG immunoblot and densitometry) [1]: > 50%

B6: TIMP-3 K42A/K157A, C-terminally FLAG-tagged (natural protein)
chain: B1 chain with A22K, K42A, A110K, K157A
- percentage remaining in the medium of HTB94 chondrosarcoma cells after 24 h (1 nM, anti-FLAG immunoblot and densitometry) [1]: > 50%

B7: TIMP-3 K45A/K89A, C-terminally FLAG-tagged (natural protein)
chain: B1 chain with A22K, K45A, K89A, A110K
- percentage remaining in the medium of HTB94 chondrosarcoma cells after 24 h (1 nM, anti-FLAG immunoblot and densitometry) [1]: > 50%

B8: TIMP-3 K71A/K157A, C-terminally FLAG-tagged (natural protein)
chain: B1 chain with A22K, K71A, A110K, K157A
- percentage remaining in the medium of HTB94 chondrosarcoma cells after 24 h (1 nM, anti-FLAG immunoblot and densitometry) [1]: > 50%

B9: TIMP-3 K42A, C-terminally FLAG-tagged (natural protein)
chain: B1 chain with A22K, K42A, A110K
- half-life of loss from the medium of HTB94 chondrosarcoma cells (1 nM, 0-24 h, anti-FLAG immunoblot and densitometry) [2]: 8.8 h

B10: TIMP-3 K71A, C-terminally FLAG-tagged (natural protein)
chain: B1 chain with A22K, K71A, A110K
- half-life of loss from the medium of HTB94 chondrosarcoma cells (1 nM, 0-24 h, anti-FLAG immunoblot and densitometry) [2]: 12.9 h

B11: TIMP-3 K157A, C-terminally FLAG-tagged (natural protein)
chain: B1 chain with A22K, A110K, K157A
- half-life of loss from the medium of HTB94 chondrosarcoma cells (1 nM, 0-24 h, anti-FLAG immunoblot and densitometry) [2]: 7.8 h

B12: wild-type TIMP-3 (tissue inhibitor of metalloproteinases-3), C-terminally FLAG-tagged (natural protein, UniProt P35625 24-211, looked up)
chain: B1 chain with A22K, A110K
notes: TIMP-3, secreted into the conditioned medium; source: for the screen also transiently transfected, conditioned medium dialyzed against TBS; not shown: FLAG, C-terminal, kept
- Ki [3]: 1.27 nM
- Ki [4]: 1.2 nM
- Ki [5]: 0.6 nM
- Ki [6]: 1.2 nM
- Ki [7]: 0.19 nM
- half-life of loss from the medium of HTB94 chondrosarcoma cells (1 nM, 0-24 h, anti-FLAG immunoblot and densitometry) [8]: 3.6 h
- half-life of uptake from the medium of LRP1 wild-type PEA10 cells (1 nM, 0-8 h); remained at the same level in the medium of LRP1-null PEA13 cells [8]: 1.9 h
- Ki (ADAM17 ectodomain): 3.54 nM

B13: TIMP-3 K26A/K45A, C-terminally FLAG-tagged (natural protein, UniProt P35625 24-211, looked up)
chain: B1 chain with A22K, K26A, K45A, A110K
notes: as for B12
- Ki [3]: 0.95 nM
- Ki [4]: 0.92 nM
- Ki [5]: 0.63 nM
- Ki [6]: 0.52 nM
- Ki [7]: 0.12 nM
- Ki (ADAM17 ectodomain): 3.78 nM

B14: TIMP-3 K42A/K110A, C-terminally FLAG-tagged (natural protein, UniProt P35625 24-211, looked up)
chain: B1 chain with A22K, K42A
notes: TIMP-3, secreted into the conditioned medium; The discussion once calls this mutant K45A/K110A; source: for the screen also transiently transfected, conditioned medium dialyzed against TBS; not shown: FLAG, C-terminal, kept
- Ki [3]: 1.12 nM
- Ki [4]: 1.4 nM
- Ki [5]: 0.6 nM
- Ki [6]: 0.6 nM
- Ki [7]: 0.24 nM
- Ki [9]: 1.2 nM
- Ki (ADAM17 ectodomain): 2.34 nM
